System: HEYA8 ovarian cancer cells
Assay: In vivo efficacy and survival, intraperitoneal HEYA8-Luc+ ovarian cancer model
Set-up: species or system athymic nude mice
Conditions: survival monitored for 100 days; antibody 10 mg/kg twice a week for 5 weeks; OSM 250 ng/kg
Protocol: To test the in vivo efficacy of anti-OSMR antibodies and overall survival efficiency post-treatment, Heya8-Luc+ cells (3×10^4 cells/animal) were intraperitoneally injected into 4-6-week-old athymic female nude mice (Nu/Nu) (Envigo, Madison, WI, USA) with a 27-gauge needle. Mice were monitored for tumor growth by bio-luminescence imaging IVIS100 and after 7 days post injection, randomly divided into 7 mice per group (efficacy testing) and 10 mice per group (survival studies). Mice were treated intraperitoneally twice weekly with Control IgG.
All the antibody clones were given at a concentration 10 mg/kg b.w twice a week for 5 weeks. All mice were euthanized at the end of 5 weeks or when moribund. Tumors were harvested and weighed, total number of tumor nodules and metastasis to distant organs were counted and imaged using IVIS100. The tumors were excised and proceeded for IHC, Western blotting and qPCR. For survival studies, the treatments were stopped after 5 weeks, and survival progression was monitored for a total of 100 days.

B1: OSM: recombinant human oncostatin M, ligand of OSMR, given with control IgG to stimulate tumor growth (protein)
chain: AAIGSCSKEYRVLLGQLQKQTDLMQDTSRLLDPYIRIQGLDVPKLREHCRERPGAFPSEETLRGLGRRGFLQTLNATLGCVLHRLADLEQRLPKAQDLERSGLNIEDLEKLQMARPNILGLRNNIYCMAQLLDNSDTAEPTKAGRGASQPPTPTPASDAFQRKLEGCRFLHGYHRFMHSVGRVFSKWGESPNRSRR
Work on B1 yielded a median survival of 29 days.

From US20250197513A1, “OSMR-SPECIFIC MONOCLONAL ANTIBODIES AND METHODS OF THEIR USE” (THE BOARD OF REGENTS OF THE UNIVERSITY OF TEXAS SYSTEM, priority 2021, published 2025)
